Data on one substance can be found in publication PMC6344858.

Experiment [1] has as its target PfoI restriction endonuclease, wild type (Pseudomonas fluorescens biovar 126). The experiment can be described thus: dynamic light scattering; PfoI-SP14 complex at various concentrations; Malvern Zetasizer uV; MW estimated from the apparent particle diameter.
Experiment [2] shares this target. The experiment can be described thus: SEC; analytical gel filtration on Superdex75 10/300; 10 mM Tris-HCl pH 7.5, 5 mM calcium chloride, with 150 mM NaCl ('low salt') or 300 mM KCl ('high salt'); 13.8 uM PfoI dimer with or without oligoduplex SP14-GF (1:1.2). For orientation: In gel filtration, larger molecules generally elute earlier.

For “PfoI restriction endonuclease, wild type (enzyme)”, the stoichiometry N in experiment [1] and in experiment [2] was 2 each time.

By stoichiometry N is commonly meant a count of units in the complex or per binding partner.
